Experimental data published in patent US10414821.

How the values were obtained:
PD-1 [1] = biological target: PD-1 (UniProt Q15116); assay: blocking ELISA (PD-1/PD-L1)
Target sequence in this assay (Q15116 25-167): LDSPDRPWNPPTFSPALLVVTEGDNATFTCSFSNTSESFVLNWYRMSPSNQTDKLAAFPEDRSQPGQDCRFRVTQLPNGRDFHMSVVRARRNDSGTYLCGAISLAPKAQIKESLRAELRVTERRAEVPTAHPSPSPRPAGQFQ

PD-1 [2] = biological target: PD-1 (UniProt Q15116); assay: ELISA
Target sequence in this assay (Q15116 25-170): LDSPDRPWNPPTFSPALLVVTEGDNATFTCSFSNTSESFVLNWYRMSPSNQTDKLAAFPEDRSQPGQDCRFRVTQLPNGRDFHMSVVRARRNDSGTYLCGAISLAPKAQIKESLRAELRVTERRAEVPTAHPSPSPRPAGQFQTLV

An IC50 (PD-1 [1]) of 0.603 nM was found for MK-3475 in this work.

An EC50 (PD-1 [2]) of 0.08 nM was found for MK3475 in this work.
